The Kd is the constant that tells how readily two partners part at equilibrium. High values mean lower affinity, low ones higher affinity.

For the series, the target named is Tenascin-C (Homo sapiens) (UniProt P24821). In words: filter. As to conditions: 2'-F all C and U; 2'-OMe all A and G except G1,G9,G28,G31,G34 (TN9 numbering) 2'-OH; (CH2CH2O)6 spacer replaces nt 10-26 (n in SEQ 64); 5' hexylamine; 3'-3' dT cap.
Tenascin-C (Homo sapiens), sequence (P24821 23-2201): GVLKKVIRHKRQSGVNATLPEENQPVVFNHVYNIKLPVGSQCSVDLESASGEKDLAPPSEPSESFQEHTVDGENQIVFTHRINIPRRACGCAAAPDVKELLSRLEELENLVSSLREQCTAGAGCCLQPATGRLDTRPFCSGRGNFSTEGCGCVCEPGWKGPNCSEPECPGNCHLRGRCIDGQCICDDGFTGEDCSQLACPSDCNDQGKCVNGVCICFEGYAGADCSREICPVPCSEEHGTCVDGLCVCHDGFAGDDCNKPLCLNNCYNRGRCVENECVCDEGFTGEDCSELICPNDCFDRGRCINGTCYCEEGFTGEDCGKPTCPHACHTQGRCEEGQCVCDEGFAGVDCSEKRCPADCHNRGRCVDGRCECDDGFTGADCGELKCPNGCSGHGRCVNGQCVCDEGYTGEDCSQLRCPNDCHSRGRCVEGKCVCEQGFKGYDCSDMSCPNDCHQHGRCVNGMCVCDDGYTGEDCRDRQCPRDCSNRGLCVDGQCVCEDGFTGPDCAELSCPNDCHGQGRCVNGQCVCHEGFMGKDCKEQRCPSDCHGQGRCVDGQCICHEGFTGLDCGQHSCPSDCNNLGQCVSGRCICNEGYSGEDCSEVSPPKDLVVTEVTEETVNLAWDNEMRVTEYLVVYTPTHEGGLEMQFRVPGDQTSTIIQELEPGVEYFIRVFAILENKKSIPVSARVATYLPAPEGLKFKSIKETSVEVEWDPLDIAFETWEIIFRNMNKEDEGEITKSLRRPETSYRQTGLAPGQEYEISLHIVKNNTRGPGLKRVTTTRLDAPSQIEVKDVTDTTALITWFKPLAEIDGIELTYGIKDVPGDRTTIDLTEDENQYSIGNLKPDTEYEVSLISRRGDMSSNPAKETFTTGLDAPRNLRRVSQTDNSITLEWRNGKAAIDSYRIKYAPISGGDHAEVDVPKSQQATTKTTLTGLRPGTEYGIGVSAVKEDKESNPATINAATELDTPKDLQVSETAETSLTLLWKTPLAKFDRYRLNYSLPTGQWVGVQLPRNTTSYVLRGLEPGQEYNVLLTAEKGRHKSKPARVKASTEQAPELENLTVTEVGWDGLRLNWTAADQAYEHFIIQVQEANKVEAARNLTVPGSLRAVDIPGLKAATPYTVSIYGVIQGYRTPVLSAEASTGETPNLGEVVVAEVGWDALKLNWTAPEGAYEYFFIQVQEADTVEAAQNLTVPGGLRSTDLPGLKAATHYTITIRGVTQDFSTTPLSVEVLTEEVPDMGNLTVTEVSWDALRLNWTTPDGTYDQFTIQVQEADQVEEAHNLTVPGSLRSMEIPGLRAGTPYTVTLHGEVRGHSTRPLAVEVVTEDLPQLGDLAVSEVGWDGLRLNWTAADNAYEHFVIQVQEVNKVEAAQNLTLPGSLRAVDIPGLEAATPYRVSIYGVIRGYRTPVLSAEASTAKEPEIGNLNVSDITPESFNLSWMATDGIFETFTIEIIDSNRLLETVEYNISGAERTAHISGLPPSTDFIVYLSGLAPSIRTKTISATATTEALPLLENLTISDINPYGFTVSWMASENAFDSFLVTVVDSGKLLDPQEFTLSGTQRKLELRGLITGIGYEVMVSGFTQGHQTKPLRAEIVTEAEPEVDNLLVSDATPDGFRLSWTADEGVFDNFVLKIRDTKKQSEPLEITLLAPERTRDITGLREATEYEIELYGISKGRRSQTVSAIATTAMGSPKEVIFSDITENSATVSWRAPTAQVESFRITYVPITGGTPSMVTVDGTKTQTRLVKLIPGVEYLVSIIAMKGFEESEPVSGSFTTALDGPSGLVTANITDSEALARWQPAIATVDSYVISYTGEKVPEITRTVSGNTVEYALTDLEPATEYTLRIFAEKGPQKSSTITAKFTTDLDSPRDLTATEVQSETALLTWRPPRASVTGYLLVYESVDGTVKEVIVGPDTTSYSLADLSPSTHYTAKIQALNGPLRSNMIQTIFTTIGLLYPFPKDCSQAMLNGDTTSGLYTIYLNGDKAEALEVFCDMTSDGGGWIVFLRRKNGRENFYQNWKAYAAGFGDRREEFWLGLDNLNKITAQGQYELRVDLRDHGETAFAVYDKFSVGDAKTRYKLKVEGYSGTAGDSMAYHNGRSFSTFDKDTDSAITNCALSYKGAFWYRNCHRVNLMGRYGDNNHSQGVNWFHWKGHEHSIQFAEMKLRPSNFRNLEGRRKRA

“GGGAGGACGNCGUCGCCGUAAUGGAUGUUUUGCUCCCUG [TTA1 (GS7641)]” yielded a Kd of 5 nM.

For the origin of these results see US20060105378.
